# Source: the DeepSol protein solubility set
# Test: soluble on expression in E. coli; label from the status in PepcDB or PDB records
row,Sequence,soluble on expression in E. coli
1,MGSPLPFRLTCVWAGEPSMKKAIIFDCEFLCLEGSQRRFWCAAHDPDPVIAQIGAVKLGLEGGFPLLETYKVLISPVDRHGRRYAIDPFFTRLTGITEENIEAEGVPLQDALSSFDSFSEGAQCWSWGKDELNMMAISTYVAGIQPPMPACRFDNAVRLLLAAGMPVEDLAKTPSNSLADYYGVAHPPLQGHDALGDALSVSYALQHLLRSGKLKPEEFTLAA,soluble
2,MAHELQLIKQSSGILIPATPETSEILQSKIKLGAVLVAEFRQVRNPAFHRRFFALLNLGFEYWEPTGGAISANERKLVNGYAKFLAAYGGNESALLDAAEQYLEQIANRRVTNGISLCKSFDAYRAWVTVEAGHYDAIQLPDGTLRKHPRSIAFSSMDEVEFQQLYKSALDVLWRWILSRTFRTQREAENAAAQLMSWAG,not soluble
3,QILSPNYKARADSNAFYQKPVYPSRGVIYDRNGELLVYNEPAYDLVAVTKEVGEFDTLALCQTLNVEPEYVRKRFQDIRDRRINPGYSPYVPQLLLAQLNPREAGRFQEQLFKFPGFSIRPRAIRQYKYHGAAHVLGYLSEANMRDLERDSSLIAGDYVGRSGIERQYEKTLRGEKGIEVLLRDARGRIKGHYSDGKYDSPAIPGRDLTLSIDSKLQTLGEQLMQGKRGAIVMIEPETGEVLCLVSSPSYDPSLLAGKDRGKNHLEMEHDRNKPLYARAIQATYPPGSTFKPAQGAIFLQEGVIRPTDAFSCYHGFPPLNNRPACHSHGSP,not soluble
4,MGSDKIHHHHHHMADGTSLSIDAKPTEEFSVREVFGIDTDMKVKGFAEPTDRVPAIDPTYKFDPDTTLAILAGYGYNRRVMVQGYHGTGKSTHIEQVGARLNWPTVRVNLDSHISRIDLIGKDAIKLRDGKQVTEFHEGILPWALRNPVAIVFDEYDAGRADVMFVIQRVLETDGKLTLMDQNEIITPNPCFRLFATANTVGLGDTTGLYHGTQQINQAQMDRWSLVATLNYLRHDAEVNIVLAKCPHYNTETGRKTMNQMVTVADLTRTAFMNGELSTVMSPRTVINWAQNAEIFRDVGYAFRVSFLNKCDELERQTVAEFYQRCFDEELPESAASMSLG,not soluble
5,MNSKSAQGLAGLRNLGNTCFMNSILQCLSNTRELRDYCLQRLYMRDLHHGSNAHTALVEEFAKLIQTIWTSSPNDVVSPSEFKTQIQRYAPRFVGYNQQDAQEFLRFLLDGLHNEVNRVTLRPKSNPENLDHLPDDEKGRQMWRKYLEREDSRIGDLFVGQLKSSLTCTDCGYCSTVFDPFWDLSLPIAKRGYPEVTLMDCMRLFTKEDVLDGDEKPTCCRCRGRKRCIKKFSIQRFPKILVLHLKRFSESRIRTSKLTTFVNFPLRDLDLREFASENTNHAVYNLYAVSNHSGTTMGGHYTAYCRSPGTGEWHTFNDSSVTPMSSSQVRTSDAYLLFYELASPPSRMAAALEHHHHHH,soluble
6,MAVRFASLGSGSDGNALLVESTDGTTSTRILLDCGFGIRETVRRLERLGCAPASLDAILVTHEHGDHIGSAYAFAAKYSVPVWTSHGTYRATASLRGADRAAVRFCRADDAFSIGDLRILPYTVPHDAREPLQFIFDDGARRLGVLTDAGMSTEYLCGHLTGLHAFVLECNHDREMLANSAYPWSLKQRIGGDFGHLANDIAAAILARVRHDGLHTVVAAHLSKQNNTPELAAAAIASALGVPAGDVPIADQEAGLGWQAVLEHHHHHH,not soluble
7,MYKTIIMPVDVFEMALSDKAVRHAEFLAQQDGVIHLLHVLPGSASFTMSRFTADLRRFEEHLQHEAETRLQTMVSHFSIDPSRIKLHVRFGSVRDMVNELASEINADVVVIGSRNPSISTHLLGSNASSVIRHAHIPVMVVR,not soluble
8,MDEKKLFENFQLTFGRMISPFEIEDIQKWIHEDNMPIEVVNLALREAVENNKISWKYINKILVDWYKSGDTTVEKVRDRLQRFDDSKKQRSVTTSNVPSWSNPDYKEPDLEEFALGSMDGIEDGSGDF,not soluble
9,MGHHHHHHSHMQQQETNLLANLTTNDARDNSKDFQNSKVGAAATSRDEGCNCPIIGEIVISCYWLFEIPPLISE,soluble
10,MGSDKIHHHHHHMTFMPEKRNADLLFRGFSKTRLMVITLIAVNGPMTVTQLSKVIKTTRSNLYQAIKEMVSDGILVQTRTVSEKNYVEKFYDINTDLFDAIKYGDIRKAIEEMDEDKLRNILYSFLRSASAILSIMAEQVNLSNKDDLDKYVDYVRKNLLIISFSTHSTKDMSKFSSMLSNFFTEIDDDNDEKKDEHLLYIVGFPILNQMGFISKSRHEKLTGDGKE,not soluble
11,MGVYDYKNFGTADSKALFSDAMAITLYSYHNLDNGFAAGYQHNGFGLGLPATLVTALLGGTDSQGVIPGIPWNPDSEKLALDAVKKAGWTPITASQLGYDGKTDARGTFFGEKAGYTTAQVEILGKYDAQGHLTEIGIAFRGTSGPRENLILDSIGDVINDLLAAFGPKDYAKNYVGEAFGNLLNDVVAFAKANGLSGKDVLVSGHSLGGLAVNSMADLSGGKWGGFFADSNYIAYASPTQSSTDKVLNVGYENDPVFRALDGSTFTGASVGVHDAPKESATDNIVSFNDHYASTAWNLLPFSILNIPTWISHLPTAYGDGMNRIIESKFYDLTSKDSTIIVANLSDPARANTWVQDLNRNAETHKGSTFIIGSDSNDLIQGGSGNDYLEGRAGNDTFRDGGGYNVILGGAGNNTLDLQKSVNTFDFANDGAGNLYVRDANGGISITRDIGSIVTKEPGFLWGLFKDDVTHSVTASGLKVGSNVTQYDASVKGTNGADTLKAHAGGDWLFGLDGNDHLIGGVGNDVFVGGAGNDLMESGGGADTFLFNGAFGQDRVVGFTSNDKLVFLGVQGVLPNDDFRAHASMVGQDTVLKFGGDSVTLVGVALNSLSADGIVIA,soluble
12,GSRATVFKLGLFKSLFLCSFHDITRLFKNDKTTNQQWVLAVFGLAEVFFEASFELLKKQCSFLQMQKRSHEGGTCAVYLICFNTAKSRETVRNLMANMLNVREECLMLQPPKIRGLSAALFWFKSSLSPATLKHGALPEWIRAQTTLN,soluble
13,MGSDKIHHHHHHMTDRVLILGGRGRIGSSVAQDLANHTQAQITITGRSAEFGKAVSLSSGGQVQFLVLDLVEVDKLQNAIANSNLVIHCAGPFHYRDTNVLETCIAQGVNYVDVSDHRSYTSKALNFSEQAAAAGVTAIINTGIFPGISNSMVRQGVEQFDKPENIHLSYLVSGSGGAGITVMRTTFLGLQYPFETWIDGKWQVIKPYSERELVEFPPPYGRSGVYWFDMPETFTLPKAFPSVKTVITKFGSVPDFYNHLTWIAAHIFPKWLMQRRYMIEFLSHVSHSMTDVTNNFSGIGVAVRSEVTGQKDGKTAVYCSTVVHENTALASGCGTGSIAQLLLEGKLKKPGVFAVEEALPTDLFEEVMQSRGIKINHSWL,not soluble
14,MLQNSRIKMNPKKLYQADGHAVQELLPAMKILYQAKAEDPNTDNSPKWTQVKNKLSSKMQEVRITRQLSSQLPETGALLSELLSRQEFISQQHERAASRAVPLAEAEKVLQATVQNIAQETEQLSNKLNNVASDEAELDEKIERKKREYEQLQKRFAKLQSFRPQYMDEYERFEERLKKLYEVYVLNFRNLSYLRKVHDDLARSERQRQEELEKAMRMAVEKMRLEQEKKDAIGLHDDDGSDAPLVDRRQSVRKVYGNMMGGDASDDDEDDEDDEDDEIIRMDDNVAQHHKRELHRQEEDEERSEADYMVGITTAHVADDAKSDLSSGDDF,not soluble
15,MRYIMASPINSGIMMANLCPSTFLDKNRNVAAELDIKNNEKKYSPGSNFAKWMLQEIKRLILNIMSGSRSINTDILDYFHPMPGTENNGNRTWVAATGEDEYIEIKQTGDKSFNITLVGRDKPSRKEIPYSGVAVATIIKSLSEKTSALETHSADTVLRKKLVNSIVMKNTDFNYEIPAGILSNIYDLLKLRIKKDEGYVPVQESFKRTDVFFDSMIMDAH,not soluble
